The results in this text go back to publication PMC7088246.

The assay addresses recombinant glycosylated HIV-1 IIIB gp120 (baculovirus) (HIV-1 IIIB) (UniProt P04578). Nature of the assay: SPR. (SPR reads the build-up and loss of mass on a sensor chip optically.)

Usually Kd stands for the free concentration of one partner at which half of the binding sites on the other are occupied at equilibrium, for simple one-to-one binding. The koff is the first-order rate constant of dissociation. As usually defined, the kon is a measure of how fast the partners come together.

Turning to “recombinant KAA-1 (His tag removed by thrombin) (natural protein)”, the Ka turned out to be 1.61e+09 M⁻¹, the Kd is 622 pM and the koff is 0.000529 s⁻¹.

With “His-tagged recombinant KAA-1 (natural protein)”, the Ka was 1.48e+09 M⁻¹, the Kd amounted to 677 pM and the on-rate (kon) was determined as 871000 M⁻¹ s⁻¹.
